Substitutions are numbered along the chain they refer to.

Results on four molecules are retold here after PMC3458533.

What all share (assay): filter binding
The target of series [1] is T1, R.MwoI S310D (Methanothermobacter wolfeii (DSMZ), UniProt O59646 1-363, S310D).
T1 sequence: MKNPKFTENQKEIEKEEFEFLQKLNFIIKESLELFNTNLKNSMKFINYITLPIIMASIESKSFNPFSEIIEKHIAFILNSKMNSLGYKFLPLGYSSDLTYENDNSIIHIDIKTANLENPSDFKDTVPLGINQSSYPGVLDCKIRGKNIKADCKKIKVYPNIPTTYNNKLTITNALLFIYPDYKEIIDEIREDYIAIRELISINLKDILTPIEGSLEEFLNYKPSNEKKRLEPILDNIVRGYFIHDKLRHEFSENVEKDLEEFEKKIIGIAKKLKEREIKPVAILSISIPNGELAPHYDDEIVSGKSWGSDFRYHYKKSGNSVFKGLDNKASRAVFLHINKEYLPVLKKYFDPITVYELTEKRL

The target in series [2] is T2, R.MwoI S310K (Methanothermobacter wolfeii (DSMZ), UniProt O59646 1-363, S310K).
T2 sequence: T1 sequence with D310K

Series [3] deals with T3, R.MwoI K112A (Methanothermobacter wolfeii (DSMZ), UniProt O59646 1-363, K112A).
T3 sequence: T1 sequence with K112A, D310S

Series [4] deals with T4, R.MwoI S310A (Methanothermobacter wolfeii (DSMZ), UniProt O59646 1-363, S310A).
T4 sequence: T1 sequence with D310A

In series [5] the target is T5, R.MwoI T125R (Methanothermobacter wolfeii (DSMZ), UniProt O59646 1-363, T125R).
T5 sequence: T1 sequence with T125R, D310S

In series [6] the target is T6, R.MwoI E68A (Methanothermobacter wolfeii (DSMZ), UniProt O59646 1-363, E68A).
T6 sequence: T1 sequence with E68A, D310S

For series [7], the target named is T7, R.MwoI A330R (Methanothermobacter wolfeii (DSMZ), UniProt O59646 1-363, A330R).
T7 sequence: T1 sequence with D310S, A330R

Series [8] concerns the target T8, R.MwoI D110A (Methanothermobacter wolfeii (DSMZ), UniProt O59646 1-363, D110A).
T8 sequence: T1 sequence with D110A, D310S

B1: G/C (GCGN5CGC) (dsDNA)
DNA 1: GACAGTGCGATCTCCGCGACAGT
DNA 2: ACTGTCGCGGAGATCGCACTGTC
Take B1: in series [1], the binding result was “binds”.

B2: C/G (GCCN5GGC) (dsDNA)
DNA 1: GACAGTGCCATCTCGGCGACAGT
DNA 2: ACTGTCGCCGAGATGGCACTGTC
As to B2, the binding result in series [2] was “binds”.

B3: MwoI target oligonucleotide (dsDNA)
DNA 1: CGGCTGTAGTCGCAC
DNA 2: GTGCGACTACAGCCG
For B3, the binding signal was 114 % of wt in series [3]; 53 % of wt in series [4]; 42 % of wt in series [5]; > 350 % of wt in series [6]; > 350 % of wt in series [7]; 25 % of wt in series [8].

B4: A/T (GCAN5TGC) (dsDNA)
DNA 1: GACAGTGCAATCTCTGCGACAGT
DNA 2: ACTGTCGCAGAGATTGCACTGTC
Consider B4, for which the binding result in series [1] is listed as “binds”.
